Measurements published in the supplement of paper PMC10567573.

B1: DCTD (parent)
chain: VKGCSMYVALFPCNECAKLIIQAG

Variants of: B1
Experiment: protein stability index of a GFP-peptide fusion (GPS, HEK-293T) (PSI 1-6); higher = more stable
Settings: c terminus: a fixed tail appended
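Also: lentivirally expressed fusions sorted by FACS into six bins by GFP to DsRed ratio, PSI derived from sequencing read proportions per bin multiplied by bin number.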

Protein stability index, by site and new letter:
K2: R 2.54, F 2.27, S 3.47, V 4.19
E15: N 2.17, I 3.06, H 3.15, Q 2.62, V 1.31, G 3.97, W 4.68
A17: T 3.02, N 3.32, H 3.41, Q 3.48, I 3.08
I20: H 2.4
I21: W 2.72, E 1.31, L 1.76, V 2.14, D 3.77, T 1.83, S 2.24
M6: A 3.35, T 2.33, H 2.21, L 4.51, E 2.2, Y 2.7, S 2.46, C 2.7, N 2.2, D 1.7, R 1.58, Q 3.17, I 3.81
K18: C 4.05, S 4.23, V 4.91, H 2.55, I 1.99, W 1, L 1.05
C13: E 2.59, P 1.7
A23: P 2.84, G 2.31, E 2.7, L 5.75
F11: C 3.11, S 2.83, D 4.47, Y 2.95
V8: N 1.49, W 1.9, D 1.62, K 3.21, H 2.37, P 2.22, L 1.94, G 1.28, A 2.64, T 2.19, M 2.92, E 1.75, Q 4.51, Y 3.08, C 1.9, S 2.3, F 3.62
V1: P 2.74, F 3.94, G 3.72, H 1.54, T 3.12, A 1.7, I 2.68, S 3.18, K 3.98, E 2.15, W 2.09, C 2.61, M 3.04
A9: W 1.94, G 3.16, C 2.79, F 3.38, L 3.68
C16: K 5.31, N 5.28, M 3.57
G3: K 2.53, T 3.43, A 2.9, Q 3.85, Y 4.09, I 3.94, P 4.11, N 3.06, C 2.07, F 2.27, D 3.8, W 4.42, V 2.23, M 4.03
L19: C 3.04, E 5.26, T 2.23, D 2.4, F 3.88, M 2.14, W 2.99
S5: W 3.75, C 1.73, K 2.44, H 3.63, M 1.55, E 3.58, Y 1.87, P 3.12, N 2.91, F 2.58, D 2.2
Y7: C 2.84, M 4.09, W 2.92, I 3.49, H 1.78, F 2.5, T 1.91, A 2.65, L 4.45, D 1.68
L10: S 2.2, P 3.06, A 2.48, Q 3.35
N14: M 2.9, F 2.99, P 2.04, K 1.92
P12: Q 1.81, G 2.57, T 2.86, R 2.9, V 4.55, N 3.57
G24: N 2.86, T 3.17, K 1.76, E 2.98, A 2, V 2.98, H 3.84
Q22: E 3.39, P 2.51
C4: F 2.92, I 2.89, V 2.86, A 2.19, T 2.88, L 2.78, P 1.75, R 3.18, E 1.71, S 3.15
